{"source": "paper PMC6367419", "about": "(Nature Communications, 2019)", "molecules": {"B1": {"name": "EscO^1–125 (full-length EPEC central stalk protein EscO) (natural protein)", "chain": "MLDRILSIRKSRANRLRESMAKINSQIKEVDGKLDDCEQAIKESIASKQAYCASLVNLDKVSLYKYQIKNNAFDEQKQRLYEKKSSLSKEKRSLLDSQKRTKEDLQHVNKSIEKLSFAIKEHYFD", "notes": "source: E. coli BL21 (λDE3), purified (HisTrap HP, thrombin cleavage, second HisTrap HP, desalting)"}, "B2": {"name": "EscN^29–446 (EPEC type III secretion system ATPase EscN, residues 29–446) (enzyme)", "chain": "NSSTRYEGKIINIGGTIIKARLPKARIGAFYKIEPSQRLAEVIAIDEDEVFLLPFEHVSGMYCGQWLSYQGDEFKIRVGDALLGRLIDGIGRPMESNIVAPYLPFERSLYAEPPDPLLRQVIDQPFILGVRAIDGLLTCGIGQRIGIFAGSGVGKSTLLGMICNGASADIIVLALIGERGREVNEFLALLPQSTLSKCVLVVTTSDRPALERMKAAFTATTIAEYFRDQGKNVLLMMDSVTRYARAARDVGLASGEPDVRGGFPPSVFSSLPKLLERAGPAPKGSITAIYTVLLESDNVNDPIGDEVRSILDGHIVLTRELAEENHFPAIDIGLSASRVMHNVVTSEHLRAAAECKKLIATYKNVELLIRIGEYTMGQDPEADKAIKNRKLIQNFIQQSTKDISSYEKTIESLFKVVA", "notes": "also called T3SS ATPase; chains NA to NF; source: E. coli BL21 (λDE3), purified (HisTrap HP, thrombin cleavage, second HisTrap HP, desalting)"}}, "key": {"[1]": {"biological_target": "T1, EscN-EscO complex (EscN^29–446 with EscO^1–125) (Escherichia coli, UniProt B7UMA6)", "assay": "cryo-EM structure, […] Å", "format": "binding", "parameters": "EscN residues 29-446 plus full-length EscO (125 residues); N-terminal 6His tags cleaved with thrombin (tag residue 0 left on EscO); E. coli BL21(DE3); 6:1 complex; with Type III secretion system central stalk protein EscO", "conditions": "bound as transition state analogue Mg2+ADP-AlF3; pH 7.5; catalytic inter-subunit sites (four of six)"}, "[2]": {"biological_target": "T1, EscN-EscO complex (EscN^29–446 with EscO^1–125)", "conditions": "3 mM ATP, 500 nM EscN, EscO 1:1 molar, 37 °C; pre-incubated with Mg2+ADP-AlF3, diluted out before assay"}, "[3]": {"biological_target": "EscN^29–446 (EPEC type III secretion system ATPase EscN, residues 29–446) (enteropathogenic Escherichia coli (EPEC) O127:H6 E2348/69) (UniProt B7UMA6)"}, "[4]": {"biological_target": "B2", "assay": "cryo-EM structure", "conditions": "both partners purified"}, "[5]": {"biological_target": "the molecule itself", "assay": "cryo-EM structure"}}, "data": [{"molecule": "Nc1ncnc2c1ncn2[C@@H]1O[C@H](COP(=O)(O)OP(=O)(O)O)[C@@H](O)[C@H]1O", "note": "[ADP]", "values": [{"measurement": "cryo-EM structure, 3.29 Å", "setting": "[1]", "result": "Sample density of the class two catalytic site ligands ADP, AlF3 (grey and cyan)"}]}, {"molecule": "Nc1ncnc2c1ncn2[C@@H]1O[C@H](COP(=O)(O)OP(=O)(O)OP(=O)(O)O)[C@@H](O)[C@H]1O", "note": "[ATP]", "values": [{"measurement": "EnzChek phosphate release ATPase assay", "setting": "[2]", "result": "found to further enhance EscN oligomerization and ATPase activity"}]}, {"molecule": "EscO^1–125 Lys110Glu/Lys114Glu (natural protein)", "values": [{"measurement": "decrease in catalytic rate of EscN ATPase (EnzChek) with the EscO mutant against wild-type EscO", "setting": "[3]", "result": 50, "unit": "%"}]}, {"molecule": "B1", "values": [{"measurement": "stoichiometry N", "setting": "[4]", "result": 1, "unit": "EscO per EscN hexamer"}]}, {"molecule": "B2", "values": [{"measurement": "stoichiometry N", "setting": "[5]", "result": 6}]}]}
